Here are results for three molecules from patent US20260022175A1 (Chugai, published 2026).

Assay [1] deals with T1, human FcγRIa extracellular domain with C-terminal His-tag (human, UniProt P12314 16-292).
T1 construct: extracellular domain; also called hFcγR Ia; hFcγRIa
The assay can be described thus: SPR Biacore T200, Ab captured via Fab-lambda, pH 7.4, 25C.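 Note: antibodies captured on a streptavidin chip carrying biotinylated anti-Fab-lambda, with each FcγR injected as analyte in phosphate buffer. KD fitted by 1:1 Langmuir or steady-state model depending on receptor.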
Procedure: (§1) The interaction between the generated antibodies and human FcγRs was analyzed by the following method using Biacore T200. 50 mM Na-Phosphate, 150 mM NaCl, 0.05% Tween20 (pH 7.4) was used as the running buffer, and the assay was performed at 25° C. For the sensor chips, Series S SA (GE Healthcare) chips onto which CaptureSelect Human Fab-lambda Kinetics Biotin Conjugate (Thermo Fisher Scientific) was immobilized were used. The antibodies of interest were captured onto these chips and each FcγR diluted in the running buffer was allowed to interact with them. Chips were regenerated with 10 mM Glycine-HCl (pH 1.5) and 25 mM NaOH, and assay was performed by repeatedly capturing antibodies. The dissociation constants KD (mol/L) for FcγRs of each antibody were calculated using Biacore T200 Evaluation Software 2.0, using the 1:1 Langmuir binding model for FcγRIa and FcγRIIIa and the steady state affinity model for FcγRIIa. For FcγRIIb, the binding amount of FcγRIIb per unit amount of antibody was calculated by correcting the binding amount of FcγRIIb obtained from the sensorgram obtained by the measurement with the amount of antibody captured onto the chip surface.

For assay [2], the target named is T2, human FcγRIIa R allotype extracellular domain with C-terminal His-tag (human, UniProt P12318 34-217).
T2 construct: extracellular domain; also called hFcγR IIa R
T2 sequence (looked up): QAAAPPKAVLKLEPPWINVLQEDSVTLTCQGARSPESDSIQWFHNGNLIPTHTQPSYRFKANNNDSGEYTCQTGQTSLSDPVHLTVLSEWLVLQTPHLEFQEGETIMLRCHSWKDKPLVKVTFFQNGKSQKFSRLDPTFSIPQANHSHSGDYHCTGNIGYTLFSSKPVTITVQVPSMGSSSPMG
Described as above.
Procedure: as §1

For assay [3], the target named is T3, human FcγRIIa H allotype extracellular domain with C-terminal His-tag (human, UniProt P12318 34-217).
T3 construct: extracellular domain; also called hFcγR IIa H
T3 sequence (looked up): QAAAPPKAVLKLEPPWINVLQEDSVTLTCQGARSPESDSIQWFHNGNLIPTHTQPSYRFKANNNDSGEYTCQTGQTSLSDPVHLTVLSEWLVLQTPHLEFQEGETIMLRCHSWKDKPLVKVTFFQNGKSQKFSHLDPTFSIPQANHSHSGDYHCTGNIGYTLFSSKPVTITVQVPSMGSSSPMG
Described as above.
Procedure: as §1

The target in assay [4] is T4, human FcγRIIIa F allotype extracellular domain with C-terminal His-tag (human, UniProt P08637 17-208).
T4 construct: extracellular domain; also called hFcγR IIIa F
T4 sequence (P08637 17-208): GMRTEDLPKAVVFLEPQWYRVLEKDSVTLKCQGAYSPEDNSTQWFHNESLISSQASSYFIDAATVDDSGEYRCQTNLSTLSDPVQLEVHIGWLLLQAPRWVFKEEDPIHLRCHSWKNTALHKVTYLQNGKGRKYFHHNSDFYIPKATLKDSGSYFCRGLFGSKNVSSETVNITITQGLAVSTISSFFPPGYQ
The assay is described as above.
Procedure: as §1

The target in assay [5] is T5, human FcγRIIIa V allotype extracellular domain with C-terminal His-tag (human, UniProt P08637 17-208).
T5 construct: extracellular domain; also called hFcγR IIIa V
T5 sequence (P08637 17-208 F176V): as the sequence (P08637 17-208) above, with F160V counted along it
The assay is described as above.
Procedure: as §1

In assay [6] the target is T6, human FcγRIIb extracellular domain with C-terminal His-tag (human, UniProt P31994 43-217).
T6 construct: extracellular domain; also called hFcγR IIb
T6 sequence (looked up): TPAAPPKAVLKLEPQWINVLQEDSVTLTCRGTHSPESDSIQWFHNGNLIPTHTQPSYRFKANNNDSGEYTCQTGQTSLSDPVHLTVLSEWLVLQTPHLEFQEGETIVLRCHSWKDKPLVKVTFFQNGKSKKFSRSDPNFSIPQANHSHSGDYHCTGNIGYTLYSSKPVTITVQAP
Kind of assay: SPR; FcγRIIb at 1000 nM, bound amount per unit captured Ab.

Assay [7] has as its target T7, human FcRn (human, UniProt P55899 24-290; P61769 21-119).
T7 construct: Prepared by the method of WO 2010/107110; also called hFcRn
The assay can be described thus: SPR; KD of 04H1637-G1m/04L1610-lam1 divided by KD of variant.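 Note: biacore T200 SPR at 25 °C, antibodies captured on anti-Fab-lambda SA chip with receptor as analyte, running buffer pH 7.4 for FcγRs and pH 6.0 for FcRn.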
Procedure: as §1
(§2) The interaction between the generated antibodies and human FcRn was analyzed by the following method using Biacore T200. 50 mM Na-Phosphate, 150 mM NaCl, 0.05% Tween20 (pH 6.0) was used as the running buffer, and the assay was performed at 25° C. For the sensor chip, Series S SA (GE Healthcare) chips onto which CaptureSelect Human Fab-lambda Kinetics Biotin Conjugate (Thermo Fisher Scientific) was immobilized were used. The antibodies of interest were captured onto these chips and FcRn diluted in the running buffer was allowed to interact with them. Chips were regenerated with 10 mM Glycine-HCl (pH 1.5) and 25 mM NaOH, and assay was performed by repeatedly capturing antibodies. The dissociation constant for FcRn of each antibody was calculated using the steady state model, using Biacore T200 Evaluation Software 2.0.

For assay [8], the target named is T1, human FcγRIa extracellular domain with …. The assay is described as above.
Procedure: as §1, §2
Assay [9] addresses T2, human FcγRIIa R allotype extracellular …. The description is as above.
Procedure: as §1, §2
The target in assay [10] is T3, human FcγRIIa H allotype extracellular …. Described as above.
Procedure: as §1, §2
Assay [11] addresses T4, human FcγRIIIa F allotype extracellular …. The description is as above.
Procedure: as §1, §2
Assay [12] concerns the target T5, human FcγRIIIa V allotype extracellular …. The assay is described as above.
Procedure: as §1, §2
Assay [13] deals with T6, human FcγRIIb extracellular domain with …. Kind of assay: SPR; binding amount divided by that of 04H1637-G1m/04L1610-lam1.
In assay [14] the target is T7, human FcRn. The assay can be described thus: SPR Biacore T200, Ab captured via Fab-lambda, pH 6.0, 25C, steady state.
Procedure: as §2

T1 sequence (P12314 16-292): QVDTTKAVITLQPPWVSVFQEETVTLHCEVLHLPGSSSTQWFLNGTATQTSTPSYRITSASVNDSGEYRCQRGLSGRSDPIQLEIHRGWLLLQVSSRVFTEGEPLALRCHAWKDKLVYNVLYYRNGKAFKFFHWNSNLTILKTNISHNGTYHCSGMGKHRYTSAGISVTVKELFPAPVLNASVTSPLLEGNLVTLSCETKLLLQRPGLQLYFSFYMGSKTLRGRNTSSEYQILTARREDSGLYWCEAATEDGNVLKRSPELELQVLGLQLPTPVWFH
T7 sequence (P55899 24-290 limits assumed, chain 1 of 2): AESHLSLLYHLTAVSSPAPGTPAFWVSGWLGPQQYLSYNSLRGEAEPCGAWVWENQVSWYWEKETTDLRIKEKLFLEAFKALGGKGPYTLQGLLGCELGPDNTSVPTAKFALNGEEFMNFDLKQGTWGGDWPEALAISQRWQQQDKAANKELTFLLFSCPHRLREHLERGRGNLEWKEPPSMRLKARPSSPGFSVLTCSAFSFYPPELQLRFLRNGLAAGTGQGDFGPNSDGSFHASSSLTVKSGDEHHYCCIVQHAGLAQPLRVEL
T7 sequence (P61769 21-119 limits assumed, chain 2 of 2): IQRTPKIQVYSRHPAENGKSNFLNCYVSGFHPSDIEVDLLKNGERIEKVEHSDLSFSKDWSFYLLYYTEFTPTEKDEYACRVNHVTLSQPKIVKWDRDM

B1: 04H1637-G1m/04L1610-lam1 (antibody, human IgG1, lambda)
heavy: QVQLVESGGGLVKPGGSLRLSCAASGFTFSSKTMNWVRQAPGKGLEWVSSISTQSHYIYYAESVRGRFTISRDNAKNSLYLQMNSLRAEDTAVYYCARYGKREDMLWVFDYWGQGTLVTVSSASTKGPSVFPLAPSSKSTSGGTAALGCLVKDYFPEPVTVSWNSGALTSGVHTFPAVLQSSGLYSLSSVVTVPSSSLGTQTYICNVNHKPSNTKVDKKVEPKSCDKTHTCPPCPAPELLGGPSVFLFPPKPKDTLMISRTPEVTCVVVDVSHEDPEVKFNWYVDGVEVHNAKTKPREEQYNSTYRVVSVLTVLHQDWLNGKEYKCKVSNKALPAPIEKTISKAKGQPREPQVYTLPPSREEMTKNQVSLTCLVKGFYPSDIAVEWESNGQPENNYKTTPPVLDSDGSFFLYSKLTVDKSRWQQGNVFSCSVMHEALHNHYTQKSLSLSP
light: QSALTQPPSASGSPGQSVTISCEGPSTGVGDYNWVHWYQQHPGKAPKLMIYFTSKKPSGVPDRFSGSKSGNTASLTVSGLQAEDEADYYCQTYAAPLGPMFGGGTKLTVLGQPKAAPSVTLFPPSSEELQANKATLVCLISDFYPGAVTVAWKADSSPVKAGVETTTPSKQSNNKYAASSYLSLTPEQWKSHRSYSCQVTHEGSTVEKTVAPTECS
On to B1, for which the Kd in assay [1] was 0.049 nM; in [2] it was 2000 nM; in [3], 1500 nM; in assay [4], 1400 nM; in assay [5], 240 nM; in [14], 1300 nM. In addition, the Binding amount in [6] was found to be 0.008. Also, in assay [7], the “Relative value to KD between G1m and hFcRn” value turned out to be 1. Further, the “Relative value to KD between G1m and hFcγRs” value in assay [8], in assay [9], in assay [10], in [11] and in assay [12] was 1 each time. For the same molecule, the Relative binding amount in [13] worked out at 1.

B2: 04H1654-KT462/04L1610-lam1//04H1656-HT445/04L1610-lam1 (antibody, human IgG1, lambda)
heavy 1: QVQLVESGGGVVQPGGSLRLSCAASGFTFSSKTMNWVRQAPGKGLEWVSSISTQSHYIYYARSVRGRFTISRDNAKNSLYLQMNSLRAEDTAVYYCARYGKREDMLWVFDYWGQGTLVTVSSASTKGPSVFPLAPSSKSTSGGTAALGCLVKDYFPEPVTVSWNSGALTSGVHTFPAVLQSSGLYSLSSVVTVPSSSLGTQTYICNVNHKPSNTKVDKRVEPKSCDKTHTCPPCPAPEFQWGPMVFLFPPKPKDVLMISRTPEVTCVVVDVSDEEPEVKFNWYVDGVEVHNAKTKPREEQYNATYRVVSVLPVLHQDWLNGKEYKCKVSNDALPAPIEKTISKAKGQPREPQVYTLPPSRKEMTKNQVSLTCLVKGFYPSDIAVEWESNGQPENNYKTTPPVLDSDGSFFLYSKLTVDKSRWQQGNVFSCSVMHEALHNHYTQKSLSLSP
heavy 2: QVQLVESGGGVVQPGGSLRLSCAASGFTFSSKTMNWVRQAPGKGLEWVSSISTQSHYIYYAESVRGRFTISRDNAKNSLYLQMNSLRAEDTAVYYCARYGAREDMLWVFDYWGQGTLVTVSSASTKGPSVFPLAPSSKSTSGGTAALGCLVKDYFPEPVTVSWNSGALTSGVHTFPAVLQSSGLYSLSSVVTVPSSSLGTQTYICNVNHKPSNTKVDKRVEPKSCDKTHTCPPCPAPELLAGPSVFLFPPKPKDVLMISRTPEVTCVVVDVSHEEPEVKFNWYVDGVEVHNAKTKPREEQYNATYRVVSVLPVLHQDWLNGKEYKCKVSNDALPKPDEETISKAKGQPREPQVYTLPPSREEMTKNQVSLTCLVKGFYPSDIAVEWESNGQPENNYKTTPPVLDSDGSFFLYSKLTVDKSRWQQGNVFSCSVMHEALHNHYTQESLSLSP
light: QSALTQPPSASGSPGQSVTISCEGPSTGVGDYNWVHWYQQHPGKAPKLMIYFTSKKPSGVPDRFSGSKSGNTASLTVSGLQAEDEADYYCQTYAAPLGPMFGGGTKLTVLGQPKAAPSVTLFPPSSEELQANKATLVCLISDFYPGAVTVAWKADSSPVKAGVETTTPSKQSNNKYAASSYLSLTPEQWKSHRSYSCQVTHEGSTVEKTVAPTECS
notes: Heterodimerized antibody, IGHG1*03 constant region, E356K / K439E
As to B2, the Kd in assay [1] came out at 0.03 nM; in assay [2], 160 nM; in [3], 110 nM; in [4], 3.3 nM; in assay [5] it was 2.2 nM; in assay [14], 1500 nM. This molecule also yielded a Binding amount in assay [6] of 0.025. Moreover, the “Relative value to KD between G1m and hFcRn” value in assay [7] was 0.9. Moreover, the “Relative value to KD between G1m and hFcγRs” value was determined as 1.6 in assay [8]; 13 in [9]; 13.9 in [10]; 415 in [11]; 110 in [12]. In addition, in [13], the Relative binding amount is 3.1.

B3: 04H1654-KT461/04L1610-lam1//04H1656-HT443/04L1610-lam1 (antibody, human IgG1, lambda)
heavy 1: QVQLVESGGGVVQPGGSLRLSCAASGFTFSSKTMNWVRQAPGKGLEWVSSISTQSHYIYYARSVRGRFTISRDNAKNSLYLQMNSLRAEDTAVYYCARYGKREDMLWVFDYWGQGTLVTVSSASTKGPSVFPLAPSSKSTSGGTAALGCLVKDYFPEPVTVSWNSGALTSGVHTFPAVLQSSGLYSLSSVVTVPSSSLGTQTYICNVNHKPSNTKVDKRVEPKSCDKTHTCPPCPAPEFQWGPMVFLFPPKPKDVLMISRTPEVTCVVVDVSDEEPEVKFNWYVDGVEVHNAKTKPREEQYNATYRVVSVLPVLHQDWLNGKEYKCKVSNDALPAPEEKTISKAKGQPREPQVYTLPPSRKEMTKNQVSLTCLVKGFYPSDIAVEWESNGQPENNYKTTPPVLDSDGSFFLYSKLTVDKSRWQQGNVFSCSVMHEALHNHYTQKSLSLSP
heavy 2: QVQLVESGGGVVQPGGSLRLSCAASGFTFSSKTMNWVRQAPGKGLEWVSSISTQSHYIYYAESVRGRFTISRDNAKNSLYLQMNSLRAEDTAVYYCARYGAREDMLWVFDYWGQGTLVTVSSASTKGPSVFPLAPSSKSTSGGTAALGCLVKDYFPEPVTVSWNSGALTSGVHTFPAVLQSSGLYSLSSVVTVPSSSLGTQTYICNVNHKPSNTKVDKRVEPKSCDKTHTCPPCPAPELLAGPSVFLFPPKPKDVLMISRTPEVTCVVVDVSHEEPEVKFNWYVDGVEVHNAKTKPREEQYNATYRVVSVLPVLHQDWLNGKEYKCKVSNDALPAPEEETISKAKGQPREPQVYTLPPSREEMTKNQVSLTCLVKGFYPSDIAVEWESNGQPENNYKTTPPVLDSDGSFFLYSKLTVDKSRWQQGNVFSCSVMHEALHNHYTQESLSLSP
light: QSALTQPPSASGSPGQSVTISCEGPSTGVGDYNWVHWYQQHPGKAPKLMIYFTSKKPSGVPDRFSGSKSGNTASLTVSGLQAEDEADYYCQTYAAPLGPMFGGGTKLTVLGQPKAAPSVTLFPPSSEELQANKATLVCLISDFYPGAVTVAWKADSSPVKAGVETTTPSKQSNNKYAASSYLSLTPEQWKSHRSYSCQVTHEGSTVEKTVAPTECS
notes: Heterodimerized antibody
With B3, the Kd in assay [1] was determined as 0.032 nM; in [2] it was 240 nM; in assay [3], 200 nM; in assay [4] it was 2.6 nM; in assay [5], 1.5 nM; in [14], 1500 nM. Besides, in [6], the Binding amount worked out at 0.025. The “Relative value to KD between G1m and hFcRn” value in assay [7] stood at 0.9. The “Relative value to KD between G1m and hFcγRs” value in assay [8] amounted to 1.5; in [9], 8.4; in assay [10] it was 7.3; in [11] it was 526; in assay [12], 156. Further, the Relative binding amount in [13] amounted to 3.1.
